Drawing on the supplement of paper PMC10567573, this text covers protein stability index for 72 sequences.

The series in a line: protein stability index of a GFP-peptide fusion (GPS, HEK-293T) (PSI 1-6); higher = more stable.
The mark [1] stands for this setting: treatment: DMSO, c terminus: a fixed tail appended.
The mark [2] stands for this setting: treatment: MLN4924 1 uM, 8 h, c terminus: a fixed tail appended.

± gives the standard deviation.
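Further: 24-mer peptide tiles fused after GFP, lentivirally expressed, FACS-sorted into six equal bins by GFP/DsRed ratio, decoded by Illumina sequencing, PSI is the read-weighted mean bin number.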

Regarding AKVPRPPSTLLPTPEEQGELEPLK [FOXJ1], the protein stability index is, setting by setting: under setting [1], 5.19 ± 0.23; under setting [2], 5.3 ± 0.18. In the same order, the values of TLRPTDSQSHCYRTCFSPASDGSD [PCDHGC5] are 3.93 ± 0.25 and 4.04 ± 0.28. In the same order, the values of KMFLRTREPALDGGFQMHYEKTPF [EID1] are 2.83 ± 0.25 and 3.05 ± 0.4.

As to RQARKKGRHLELANQKLSEKLAAG [CCDC3], under setting [1], the protein stability index is 4.777 ± 0.006. Consider ESDSQGQGNGLFYSSGPQSWYPKA [ZC2HC1C], for which the protein stability index came to 3.62 ± 0.32 under setting [1] and 3.72 ± 0.34 under setting [2]. In the same order, the values of YEPLLSRVQAALVWERPARSALWC [RETREG3] are 2.39 ± 0.53 and 2.12 ± 0.22. In the same order, the values of DEDDVDQELANIDPTWIESPKTNG [SRPK2] are 5.23 ± 0.63 and 5.2 ± 0.36. In the same order, the values of GHISLRRENSSDSPKELKRRNSSS [DLC1] are 5.03 ± 0.27 and 5.23 ± 0.15. The sequence KNLYTNEYVAIKLEPMKSRAPQLH [CSNK1G3] came in with a protein stability index under setting [1] of 2.55 ± 0.28 and a protein stability index under setting [2] of 2.5 ± 0.13. In the same order, the values of LNQVADLLEQSLEEFAQAESKDQG [ALDH8A1] are 5.18 ± 0.14 and 5.21 ± 0.53. As for PSGTPTNLRRHVPDLESGSESGAD [DLC1], the protein stability index is, setting by setting: under setting [1], 5.47 ± 0.33; under setting [2], 5.46 ± 0.1. Consider CALNALTTTVCLVAAALRYLQIFA [FAM189A2], for which the protein stability index runs as follows: under setting [1], 2.75 ± 0.37; under setting [2], 3.1 ± 0.23.

In the case of HEEEVSVLRCQLGDRLNVEVDAAP [KRT36], the protein stability index runs as follows: under setting [1], 5.17 ± 0.26; under setting [2], 4.95 ± 0.32.

As to SVTGHTNIVEYLIQEQPGQEQVAG [FEM1A], the protein stability index reads like this: under setting [1], 4.45 ± 0.073; under setting [2], 4.57 ± 0.17. In the same order, the values of DTSKQKKMETMYPFIVTLEGNALQ [ZNF449] are 3.12 ± 0.34 and 2.85 ± 0.12.

With DYFISYGIEHAQCVPPSEFSEPSF [ETS1], the protein stability index by setting is: under setting [1], 2.49 ± 0.26; under setting [2], 2.67 ± 0.18. As to VRLLLEFKAEVDPLSDKGTTPLQL [ASB7], the protein stability index came out at 2.16 ± 0.48 under setting [1] and 2.31 ± 0.4 under setting [2].

Regarding LTYINEDRISTTFRLTTLLMSGCS [PLK2], the protein stability index reads like this: under setting [1], 2.74 ± 0.63; under setting [2], 2.56 ± 0.45. In the same order, the values of RNMLGLLGNVAEVKELRPQLMTSQ [ZER1] are 3.09 ± 0.3 and 3.49 ± 0.69.

Consider PIPWFLPESRSLPSSPLRLGSYKA [PPEF2], for which the protein stability index is 2.99 ± 0.16 under setting [1] and 3.11 ± 0.48 under setting [2].

EPPKPTFPAYTQSTASTTSTTNST [ZNF207] registered a protein stability index under setting [1] of 5.39 ± 0.3 and a protein stability index under setting [2] of 5.04 ± 0.21.

For the sequence HLGKEQSRRDDLEALGHMFMYFLR [CSNK1G1], the protein stability index turned out to be 2.61 ± 0.24 under setting [1] and 2.25 ± 0.26 under setting [2].

As for NPEEYNLDEPNAESDYTYSSSYEQ [SRPK2], the protein stability index stood at 5.52 ± 0.19 under setting [1] and 5.46 ± 0.25 under setting [2]. Regarding LNRSESDIRYLLGYVSQQGGQRST [FEM1B], the protein stability index stood at 3.73 ± 0.19 under setting [1] and 3.59 ± 0.33 under setting [2]. For KKDTLTEEETQFYISETVLAIDAI [STK38L], the protein stability index was found to be 3.85 ± 0.3 under setting [1] and 3.97 ± 0.15 under setting [2].

With KYLVEHKADLEVSNRHGHTCLMIS [FEM1C], the protein stability index is, setting by setting: under setting [1], 2.53 ± 0.12; under setting [2], 2.67 ± 0.23. In the same order, the values of LGSDYEQPLEVKNNSNLQRMGSSE [CDC25A] are 5.01 ± 0.19 and 4.94 ± 0.57. In the same order, the values of AQLSELRCEMEAQNQEYKMLLDIK [KRT15] are 3.65 ± 0.33 and 3.65 ± 0.38. In the same order, the values of HFSSIPDAFWWAVVSMTTVGYGDM [KCNA1] are 3.56 ± 0.34 and 3.12 ± 0.29. Consider QQLAAEPVPTGFFNMWGFGRVSKQ [WDR41], for which the protein stability index was 3.56 ± 0.35 under setting [1] and 3.49 ± 0.25 under setting [2].

As for MGNILTCCINSHCGWPRGKDAPCY [DRICH1], the protein stability index was 2.44 ± 0.39 under setting [1] and 2.08 ± 0.15 under setting [2]. For IFTKKLPHPDLPAEEKEQLLHNDE [USP39], the protein stability index under setting [1] worked out at 5 ± 0.16 and the protein stability index under setting [2] is 5.03 ± 0.1. PAQRSHTYTHGLGLHRRPGAGHCS: the protein stability index amounted to 3.52 ± 0.12 under setting [1] and 3.46 ± 0.3 under setting [2]. In the same order, the values of NSNLEEPLNPKPHKKKSPGEKPHR [ZNF449] are 5.47 ± 0.23 and 5.45 ± 0.2. In the same order, the values of KKAEKKLEENPYDLDAWSILIREA [CSTF3] are 3.19 ± 0.36 and 3.26 ± 0.41. In the same order, the values of VPSSGYGAVTASKHSNSPPLVTPP [SMTNL2] are 4.29 ± 0.14 and 4.16 ± 0.15. As for VPLGFHYETKYVVLSYLGLLSQEK [BCL2L13], the protein stability index reads like this: under setting [1], 3.25 ± 0.93; under setting [2], 2.4 ± 0.91. In the same order, the values of ISLAKGPPGPKGDQGDEGKEGRPG [SCARA5] are 5.24 ± 0.26 and 5.485 ± 0.034. In the same order, the values of PPQSPQGASSLPTTMNYPLWSQSY [MAGEA3] are 3.45 ± 0.21 and 3.47 ± 0.22. In the same order, the values of SGRVKRERDREREPEAASSRGSPV [USP39] are 5.12 ± 0.18 and 5.33 ± 0.11.

For the sequence LSHSPQEDWVLLGMANGQQWLQST [TLE6], the protein stability index runs as follows: under setting [1], 2.57 ± 0.3; under setting [2], 2.52 ± 0.26.

For the sequence ECFMCSDCGLNLKQRGYFFLDERL [PDLIM4], the protein stability index is 2.26 ± 0.32 under setting [1] and 2.08 ± 0.34 under setting [2]. In the same order, the values of SHQCAHCEKTFNRKDHLKNHLQTH [PLAGL1] are 5.03 ± 0.15 and 5.04 ± 0.14. In the same order, the values of GGRALVVRKVPPGYSIKVFDFERS [SMAD6] are 2.52 ± 0.33 and 2.37 ± 0.51. For GELSQARGQEPARADQLCQQELRE [PRPH], the protein stability index reads like this: under setting [1], 5.26 ± 0.56; under setting [2], 5.56 ± 0.085. With GIGYNGMPNGCSDDVLPWRRTAEN [DCTD], the protein stability index worked out at 3.03 ± 0.24 under setting [1] and 2.87 ± 0.1 under setting [2]. Consider TLQQFNIKLRPPGAEKPSWLEEQ [ARFIP2], for which the protein stability index (treatment: DMSO, c terminus: native) was determined as 3.55 ± 0.34 and the protein stability index (treatment: MLN4924 1 uM, 8 h, c terminus: native) stood at 3.62 ± 0.35. On to FGCEECGKKYNTMLGYKRHLALHA [PLAGL1], for which the protein stability index is 3.94 ± 0.12 under setting [1] and 3.97 ± 0.27 under setting [2].

As to SAILQFPSTLGRCKAFSTCVSHLI [OR10K2], the protein stability index is, setting by setting: under setting [1], 2.5 ± 0.55; under setting [2], 2.59 ± 0.3. In the same order, the values of SGNGDFGDWSAFNQAPSGPVASSG [CLINT1] are 4.37 ± 0.13 and 4.38 ± 0.11.

Take VVHVSFPEVTSALLESLNQQRLQG [ZBTB22]: the protein stability index runs as follows: under setting [1], 2.27 ± 0.28; under setting [2], 2.41 ± 0.21. In the case of EHPFLVNLWYSFQDEEDMFMVVDL [STK32A], the protein stability index by setting is: under setting [1], 2.9 ± 0.73; under setting [2], 2.63 ± 0.58. In the same order, the values of DIYKQECSSRPLQKGSHPMCKEHE [TRIM63] are 4.49 ± 0.24 and 4.67 ± 0.23. In the same order, the values of CLQQKQVVAEAQTRVSQLGLQVEG [LRRC45] are 3.86 ± 0.24 and 3.8 ± 0.38. Regarding KNEVGGLIKALKIFQEKHVNLLHI [TPH1], the protein stability index is 2.02 ± 0.43 under setting [1] and 2.12 ± 0.011 under setting [2]. In the same order, the values of PDSVPSLQNMGLLLDKLAKENQDI [PBXIP1] are 4.48 ± 0.18 and 4.42 ± 0.15. Take GLVKKYMNSLLIGELSPEQPSFEP [FADS1]: the protein stability index was 2.25 ± 0.089 under setting [1] and 2.34 ± 0.45 under setting [2]. LQLAIPRENAQISLDGDVTFFGAL [TNFSF13B] yielded a protein stability index under setting [1] of 2.1 ± 0.32 and a protein stability index under setting [2] of 2.17 ± 0.36. In the same order, the values of QKENVFKCDSLKEECIPEHMVRES [FAN1] are 4.56 ± 0.38 and 4.56 ± 0.19.

As for DPDECGSDYISEFRFAPNHTKELE [EPB41L3], the protein stability index is 2.91 ± 0.91 under setting [1] and 3.67 ± 0.79 under setting [2]. In the same order, the values of LQRVPSYDSFDSEDYPAALPNHKP [ETS1] are 4.45 ± 0.18 and 4.53 ± 0.17. In the case of FEGMAFLETEQGKPFVSVFRHLRL [GMCL1], the protein stability index is, setting by setting: under setting [1], 2.66 ± 0.58; under setting [2], 2.25 ± 0.31. In the same order, the values of FVMFLCLADYLVPILAPRIFGSNK [ARL6IP1] are 3.21 ± 0.48 and 3.17 ± 0.62. In the same order, the values of SSKFYDLFLMECEESPNGSEGACE [RHOBTB1] are 3.72 ± 0.74 and 3.79 ± 0.1.

Regarding NDNKVLRYLAVLESPIPEDKDRRF [EFHC1], the protein stability index by setting is: under setting [1], 3.51 ± 0.21; under setting [2], 3.6 ± 0.15. In the same order, the values of EGASSDNGCEVKNRKSILSRHLNS [PHTF1] are 4.74 ± 0.46 and 4.68 ± 0.16.

Take CHELLGHVPLLAEPSFAQFSQEIG [TPH1]: the protein stability index under setting [1] turned out to be 3.1 ± 0.27 and the protein stability index under setting [2] was 3.02 ± 0.26. For the sequence KNIVIADFVMSLTFPFKILGDSGL [P2RY14], the protein stability index was 3.04 ± 0.65 under setting [1] and 2.99 ± 0.38 under setting [2]. In the same order, the values of ALMHTLQRHRDILQVIYWARDVFI [GOSR1] are 2.84 ± 0.5 and 2.26 ± 0.47. In the same order, the values of VGYTTLVGNNHESWGWDLGRNRLY [SPSB1] are 2.26 ± 0.35 and 2.12 ± 0.25.

The sequence FSLRVHTGCHKKLGPEARRPRTRW yielded a protein stability index under setting [1] of 2.66 ± 0.28 and a protein stability index under setting [2] of 3.06 ± 0.094. In the same order, the values of LIYTLKNAEMKSAMRKLWSKKVSL [OR4A15] are 2.41 ± 0.97 and 2.04 ± 0.12.
